What is called Kd is the equilibrium constant for the complex coming apart. Lower therefore signals tighter binding.

The values below come from publication doi:10.1101/2023.06.20.545120, “Magnetogenetic cell activation using endogenous ferritin” (bioRxiv, 2024).

The target in one test is T1, mouse liver ferritin (Mus musculus, UniProt P09528;P29391).
T1 construct: ferritin heavy chain, mouse, as part of ferritin from liver; ferritin light chain, mouse, as part of ferritin from liver; Tissue ferritin is a shell of heavy and light chains; also called mouse ferritin; mouse ferritin purified from mouse liver; source: bought: Gentaur (purified from mouse liver)
In words: ELISA; first-round screen: crude periplasmic extracts of the clones on coated human spleen ferritin or mouse liver ferritin; absorbance ratio greater than 2.5 selected. The following applies: one partner purified.

For test [1], the target named is T2, human spleen ferritin (Homo sapiens, UniProt P02794;P02792).
T2 construct: ferritin heavy chain, human, as part of ferritin from spleen; ferritin light chain, human, as part of ferritin from spleen; Tissue ferritin is a shell of heavy and light chains; also called human ferritin; source: bought: Lee Biosolutions (human spleen ferritin)
In words: ITC; 10 uM human spleen ferritin in the cell, 75 uM NbFt2 in the syringe, 25 °C; MicroCal Auto-iTC200. The following applies: both partners purified.

Test [2] deals with T3, GFP-tagged mouse ferritin (Mus musculus (ferritin moiety), UniProt P09528, chimera).
T3 construct: green fluorescent protein, the N-terminal GFP moiety of GFP-mFerritin; the rest of the chimeric ferritin and its linkers; ferritin heavy chain, mouse; found by mass spectrometry as the mouse ferritin of the construct; Runs at about 71 kDa; also called GFP-mFerritin; GFP-ferritin
In words: affinity purification with mass spectrometry; the anti-HA immunoprecipitates of nanobody-HA-mCherry from HEK-293T with GFP-mFerritin; LC-MS/MS, abundance from peptides unique to mouse or human ferritin heavy chain; enrichment against cells with GFP-mFerritin alone. The following applies: partners not purified.

Test [3] has as its target T4, endogenous human ferritin of HEK-293T cells (Homo sapiens (HEK-293T, endogenous), UniProt P02794;P02792).
T4 construct: ferritin heavy chain, human; the chain whose unique peptides were quantified; ferritin light chain, human; Only the heavy chain was measured; also called human ferritin heavy chain; FTH1_human
The description is as above. The note with it: partners not purified.

Test [4] addresses T2, human spleen ferritin. In words: ELISA; first-round screen: crude periplasmic extracts of the clones on coated human spleen ferritin or mouse liver ferritin; absorbance ratio greater than 2.5 selected. The note with it: one partner purified. On the technique in general: ELISA stands for enzyme-linked immunosorbent assay.
Test [5] has as its target T3, GFP-tagged mouse ferritin. In words: co-IP; HEK-293T co-transfected with nanobody-HA-mCherry and GFP-mFerritin; lysis buffer 50 mM Tris pH 7.5, 300 mM NaCl, 1% NP-40, 0.1% SDS; anti-HA agarose overnight at 4 °C; eluate on SDS-PAGE, Coomassie. The note with it: partners not purified.

T1 sequence (P09528 whole entry, chain 1 of 2): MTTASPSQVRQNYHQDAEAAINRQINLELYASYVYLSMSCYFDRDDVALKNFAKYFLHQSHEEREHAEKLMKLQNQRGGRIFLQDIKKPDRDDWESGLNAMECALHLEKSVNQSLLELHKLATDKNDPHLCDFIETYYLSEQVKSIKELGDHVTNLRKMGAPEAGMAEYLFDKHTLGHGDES
T1 sequence (P29391 whole entry, chain 2 of 2): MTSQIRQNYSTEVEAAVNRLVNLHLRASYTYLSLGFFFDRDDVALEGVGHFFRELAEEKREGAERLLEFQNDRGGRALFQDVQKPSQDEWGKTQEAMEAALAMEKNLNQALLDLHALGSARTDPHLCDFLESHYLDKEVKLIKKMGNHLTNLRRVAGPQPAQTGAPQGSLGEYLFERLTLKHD
T2 sequence (P02794 whole entry, chain 1 of 2): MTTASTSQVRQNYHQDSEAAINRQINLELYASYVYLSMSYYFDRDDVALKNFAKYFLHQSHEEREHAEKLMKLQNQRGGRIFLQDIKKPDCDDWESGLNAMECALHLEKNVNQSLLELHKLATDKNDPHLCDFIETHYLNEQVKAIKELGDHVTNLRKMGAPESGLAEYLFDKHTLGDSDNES
T2 sequence (P02792 whole entry, chain 2 of 2): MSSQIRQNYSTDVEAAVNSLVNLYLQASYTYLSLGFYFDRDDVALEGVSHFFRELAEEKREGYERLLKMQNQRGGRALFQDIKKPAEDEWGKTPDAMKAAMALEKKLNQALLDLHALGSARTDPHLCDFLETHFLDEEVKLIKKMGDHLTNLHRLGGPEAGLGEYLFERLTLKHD
T4 sequence (P02794 whole entry, chain 1 of 2): as the sequence (P02794 whole entry, chain 1 of 2) above
T4 sequence (P02792 whole entry, chain 2 of 2): as the sequence (P02792 whole entry, chain 2 of 2) above

B1: anti-ferritin nanobody clone 8 (VHH)
VHH: QVQLQESGGGLVQPGGSLRLSCAASGFSFGDTWMYWVRQAPGKDIEWVAQISPSSVLINYPDSVSGRFTVGRDNAKNTLWLQMDSLKSEDTAVYYCATKMDGASRGQGTQVTVSS
notes: One of the 17 nanobodies of CDR3 groups 6 and 26; also called Nb-Ft clone 8; Nb-Ft-8; source: crude periplasmic extract of the phage display clone (pMECS)
With B1, the binding result in the test with mouse liver ferritin was “binds”.

B2: anti-ferritin nanobody clone 2 (VHH)
VHH: QVQLQESGGGLVQPGGSLRLSCAASGLAFSNYGMGWFRQAPGKEREFVSAVSWISDTTNYADSVKGRFTISRDNARNTVYLQMNSLKVEDTAVYYCAAGLGAPRVVAGSYQHWGQGTQVTVSS
notes: The text calls the preparation partially purified; also called Nb-Ft clone 2; Nb-Ft-2; source: crude periplasmic extract of the phage display clone (pMECS); E. coli WK6, purified (periplasmic extract, cobalt IMAC)
Take B2: in the test with human spleen ferritin [1], the Kd is 540 ± 200 nM.

B3: anti-ferritin nanobody clone 2 fused to HA-tagged mCherry (VHH)
VHH: QVQLQESGGGLVQPGGSLRLSCAASGLAFSNYGMGWFRQAPGKEREFVSAVSWISDTTNYADSVKGRFTISRDNARNTVYLQMNSLKVEDTAVYYCAAGLGAPRVVAGSYQHWGQGTQVTVSS
notes: the VHH as in m4; In the functional rows this id stands for the same VHH fused to the N-terminus of TRPV1 (Nb-Ft-2-TRPV1^Ca2+); also called Nb-Ft-2; Nb-Ft-HA-mCherry (clone 2)
For B3, the “fold enrichment in the immunoprecipitate over cells with GFP-mFerritin alone” value (“fold enrichment in the immunoprecipitate” below) in test [2] came out at 14.5 fold; in test [3], 58.1 fold.

B4: anti-ferritin nanobody clone 17 (VHH)
VHH: QVQLQESGGGAVQAGGSLRLSCAASGLAFSSYGMGWFRQAPGKEREFVAAISWGDGTTNYADSVKGRLTISRDNARNTVYLQMNSLKVGDTAVYYCAAGLGAPRAVAGSFQHWGQGTQVTVSS
notes: The text calls the preparation partially purified; also called Nb-Ft clone 17; Nb-Ft-17; source: crude periplasmic extract of the phage display clone (pMECS); E. coli WK6, purified (periplasmic extract, cobalt IMAC)
For B4, the binding result with mouse liver ferritin is on record as “binds”.

B5: anti-ferritin nanobody clone 17 fused to HA-tagged mCherry (VHH)
VHH: QVQLQESGGGAVQAGGSLRLSCAASGLAFSSYGMGWFRQAPGKEREFVAAISWGDGTTNYADSVKGRLTISRDNARNTVYLQMNSLKVGDTAVYYCAAGLGAPRAVAGSFQHWGQGTQVTVSS
notes: the VHH as in m19; also called Nb-Ft-17; Nb-Ft-HA-mCherry (clone 17)
B5: the “fold enrichment in the immunoprecipitate” value is 6 fold in test [2] and 20.9 fold in test [3].

B6: anti-ferritin nanobody clone 1 (VHH)
VHH: QVQLQESGGGLVQAGGSLRLSCTASGLAFSSYAMGWFRQAPGKEREFVATIGWTGGTTNYADSVKGRFTISRDNARNTVYLQMNSLKVEDTAVYYCAAGLGAPTVVAGSYQHWGQGTQVTVSS
notes: One of the 17 nanobodies of CDR3 groups 6 and 26; also called Nb-Ft clone 1; Nb-Ft-1; source: crude periplasmic extract of the phage display clone (pMECS)
B6: the binding result with human spleen ferritin [4] is reported as “binds”.

B7: anti-ferritin nanobody clone 9 (VHH)
VHH: QVQLQESGGGLVQAGGSLRLSCAASGLAFSSYGMGWFRQAPGKEREFVAAIRWSGGTTNYADSVKGRFTISRDNVRNTAYLQMNSLKVEDTAVYYCAAGLGAPTVVADSYQHWGQGTQVTVSS
notes: The text calls the preparation partially purified; also called Nb-Ft clone 9; Nb-Ft-9; source: crude periplasmic extract of the phage display clone (pMECS); E. coli WK6, purified (periplasmic extract, cobalt IMAC)
For the molecule B7, the binding result in the test with mouse liver ferritin is given as “binds”.

B8: anti-ferritin nanobody clone 5 (VHH)
VHH: QVQLQESGGGLVQAGGSLRLSCAASGLAFSSYGMGWFRQAPGKEREFVASISWSGGTTNYADSVKGRLTISRDNARNTVYLQMNSLKVEDTAVYYCAAGLGAPRVVAGSYQHWGQGTQVTVSS
notes: One of the 17 nanobodies of CDR3 groups 6 and 26; also called Nb-Ft clone 5; Nb-Ft-5; source: crude periplasmic extract of the phage display clone (pMECS)
As for B8, the binding result with human spleen ferritin [4] was “binds”.

B9: anti-ferritin nanobody clone 10 fused to HA-tagged mCherry (VHH)
VHH: QVQLQESGGGLVQAGGSLRLSCAASGLAFSSYGMGWFRQAPGKEREFVVAIPWSGGTTNYADSVKGRFTISRDNARNTVYLQMNSLKVEDTAVYYCAAGLGAPTVVADSYQHWGQGTQVTVSS
notes: the VHH as in m12; also called Nb-Ft-10; Nb-Ft-HA-mCherry (clone 10)
Regarding B9, the binding result in test [5] is on record as “binds”. The “fold enrichment in the immunoprecipitate” value in test [3] was found to be 7 fold.

B10: anti-ferritin nanobody clone 9 fused to HA-tagged mCherry (VHH)
VHH: QVQLQESGGGLVQAGGSLRLSCAASGLAFSSYGMGWFRQAPGKEREFVAAIRWSGGTTNYADSVKGRFTISRDNVRNTAYLQMNSLKVEDTAVYYCAAGLGAPTVVADSYQHWGQGTQVTVSS
notes: the VHH as in m11; In the functional row this id stands for the same VHH fused to the N-terminus of TRPV1; also called Nb-Ft-9; Nb-Ft-HA-mCherry (clone 9)
In the case of B10, the binding result in test [5] is “binds”. Further, the “fold enrichment in the immunoprecipitate” value in test [3] is 4.6 fold.

B11: anti-ferritin nanobody clone 10 (VHH)
VHH: QVQLQESGGGLVQAGGSLRLSCAASGLAFSSYGMGWFRQAPGKEREFVVAIPWSGGTTNYADSVKGRFTISRDNARNTVYLQMNSLKVEDTAVYYCAAGLGAPTVVADSYQHWGQGTQVTVSS
notes: The text calls the preparation partially purified; also called Nb-Ft clone 10; Nb-Ft-10; source: crude periplasmic extract of the phage display clone (pMECS); E. coli WK6, purified (periplasmic extract, cobalt IMAC)
With B11, the binding result with mouse liver ferritin was “binds”.

B12: anti-ferritin nanobody clone 6 (VHH)
VHH: QVQLQESGGGLVQAGGSLRLSCAASGLAFSSYGMGWFRQAPGKEREFVAAIGWTGGTTNYADSVKGRFIISRDNARNTVYLQMNSLKVEDTAVYYCAAGLGAPMVVVGSYQHWGQGTQVTVSS
notes: One of the 17 nanobodies of CDR3 groups 6 and 26; also called Nb-Ft clone 6; Nb-Ft-6; source: crude periplasmic extract of the phage display clone (pMECS)
Turning to B12, in the test with human spleen ferritin [4], the binding result is given as “binds”.

B13: anti-ferritin nanobody clone 14 (VHH)
VHH: QVQLQESGGGLVQPGGSLRLSCAASGLAFSSYGMGWFRQAPGKEREFVVAIPWSGGTTNYADSVKGRFTISRDNARNTVYLQMNSLKVEDTAVYYCAAGLGAPTVVADSYQHWGQGTQVTVSS
notes: The text calls the preparation partially purified; also called Nb-Ft clone 14; Nb-Ft-14; source: crude periplasmic extract of the phage display clone (pMECS); E. coli WK6, purified (periplasmic extract, cobalt IMAC)
On to B13, for which, in the test with mouse liver ferritin, the binding result was “binds”.

B14: anti-ferritin nanobody clone 7 (VHH)
VHH: QVQLQESGGGLVQAGGSLRLSCAASGLAFSSYAMGWFRQAPGKEREFVAAIMWSGGTTNYADSVKGRFTISRDNVRNTVYLQMNSLKVEDAAVYYCAAGLGAPTVVADSFQHWGQGTQVTVSS
notes: One of the 17 nanobodies of CDR3 groups 6 and 26; also called Nb-Ft clone 7; Nb-Ft-7; source: crude periplasmic extract of the phage display clone (pMECS)
For B14, in the test with human spleen ferritin [4], the binding result is reported as “binds”.

B15: anti-ferritin nanobody clone 12 (VHH)
VHH: QVQLQESGGGLVQAGGSLRLSCAASGLAFSSYGMGWFRQAPGEEREFVAAISWSGGTTNYADFVKGRFTISRDNARNTVYLQMNSLKVEDTAVYYCAAGLGAPTVVAGSYQHWGQGTQVTVSS
notes: One of the 17 nanobodies of CDR3 groups 6 and 26; also called Nb-Ft clone 12; Nb-Ft-12; source: crude periplasmic extract of the phage display clone (pMECS)
Regarding B15, in the test with mouse liver ferritin, the binding result is given as “binds”.

B16: anti-ferritin nanobody clone 3 (VHH)
VHH: QGQLQESGGGAVQAGGSLRLSCAASGLAFSSYGMGWFRQAPGKEREFVASISWTGGTTNYADSVKGRLTISRDNARNTVYLQMNSLKVEDTAVYYCAAGLGAPRVVAGSYQHWGQGTQVTVSS
notes: One of the 17 nanobodies of CDR3 groups 6 and 26; also called Nb-Ft clone 3; Nb-Ft-3; source: crude periplasmic extract of the phage display clone (pMECS)
B16: in the test with human spleen ferritin [4], the binding result is “binds”.

B17: anti-ferritin nanobody clone 14 fused to HA-tagged mCherry (VHH)
VHH: QVQLQESGGGLVQPGGSLRLSCAASGLAFSSYGMGWFRQAPGKEREFVVAIPWSGGTTNYADSVKGRFTISRDNARNTVYLQMNSLKVEDTAVYYCAAGLGAPTVVADSYQHWGQGTQVTVSS
notes: the VHH as in m16; In the functional row this id stands for the same VHH fused to the N-terminus of TRPV1; also called Nb-Ft-14; Nb-Ft-HA-mCherry (clone 14)
Consider B17, for which, in test [5], the binding result is reported as “binds”. For the same molecule, in test [3], the “fold enrichment in the immunoprecipitate” value turned out to be 5.1 fold.

B18: anti-ferritin nanobody clone 11 (VHH)
VHH: QVQLQESGGGLVQPGGSLRLSCVATGLSFAKSWMYWVRQAPGKGLEWVAQISPSSVLIQYPDSVSGRFTVSRDNAKNTLFLQMDSLKSEDTAVYYCSTEMDGTSRGQGTQVTVSS
notes: One of the 17 nanobodies of CDR3 groups 6 and 26; also called Nb-Ft clone 11; Nb-Ft-11; source: crude periplasmic extract of the phage display clone (pMECS)
As to B18, the binding result with mouse liver ferritin was “binds”.

B19: anti-ferritin nanobody clone 15 (VHH)
VHH: QVQLQESGGGLVQPGGSLRLSCAASGLSFAKSWMYWVRQAPGKGLEWVAQISPSSVLIQYPDSVSGRFTVSRDNAKNTLFLQMDSLKPEDAAQYYCATDMSGTYRGQGTQVTVSS
notes: One of the 17 nanobodies of CDR3 groups 6 and 26; also called Nb-Ft clone 15; Nb-Ft-15; source: crude periplasmic extract of the phage display clone (pMECS)
Regarding B19, in the test with mouse liver ferritin, the binding result is listed as “binds”.

B20: anti-ferritin nanobody clone 16 (VHH)
VHH: QVQLQESGGGLVQPGGSLRLSCAASGLSFANSWMYWVRQAPGKGLEWVAQISPSSILIQYPDSVSGRFTVSRDNAKNTLFLQMDSLKPEDTAVYYCSTEMDGTSRGQGTQVTVSS
notes: One of the 17 nanobodies of CDR3 groups 6 and 26; also called Nb-Ft clone 16; Nb-Ft-16; source: crude periplasmic extract of the phage display clone (pMECS)
Turning to B20, the binding result in the test with mouse liver ferritin is listed as “binds”.

B21: anti-ferritin nanobody clone 4 (VHH)
VHH: QVQLQESGGGLVQPGGSLRLSCAASGLSFANSWMYWVRQAPGKGLEWVAQISPSSLLINYPDSVSGRFTVSRDNAKNTLFLQMDSLKPEDTAVYYCSTEMDGTSRGQGTQVTVSS
notes: One of the 17 nanobodies of CDR3 groups 6 and 26; also called Nb-Ft clone 4; Nb-Ft-4; source: crude periplasmic extract of the phage display clone (pMECS)
In the case of B21, in the test with human spleen ferritin [4], the binding result is recorded as “binds”.

B22: anti-ferritin nanobody clone 13 (VHH)
VHH: QVQLQESGGGLVQPGGSLRLSCVASGLSFANSWMYWVRQAPGKGLEWVAQISPSSLLINYPNSVSGRFTVSRDNAKNTLFLQMDSLKSEDTAVYYCSTGMDGTSRGQGTQVTVSS
notes: One of the 17 nanobodies of CDR3 groups 6 and 26; also called Nb-Ft clone 13; Nb-Ft-13; source: crude periplasmic extract of the phage display clone (pMECS)
As for B22, the binding result in the test with mouse liver ferritin is “binds”.
